# Test results reported in patent EP3075390A1 (Immunomedics Inc., dated 2016).
# How the values were obtained:
# [1] = biological target: T1, recombinant human IGF-1R (rhIGF-1R) (human, UniProt P08069 31-935); assay: labeled antibody on rhIGF-1R-coated beads; competitor: unlabeled 2C8
# T1 construct: extracellular domain; also called immobilized recombinant human IGF-1R; IGF-1R-coated beads
# [2] = biological target: T1, recombinant human IGF-1R (rhIGF-1R); assay: labeled antibody on rhIGF-1R-coated beads; competitor: unlabeled R1
# [3] = biological target: T1, recombinant human IGF-1R (rhIGF-1R); assay: labeled antibody on rhIGF-1R-coated beads; competitor: unlabeled 24-31
# [4] = biological target: T1, recombinant human IGF-1R (rhIGF-1R); assay: labeled antibody on rhIGF-1R-coated beads; competitor: unlabeled 1H7
# [5] = biological target: T1, recombinant human IGF-1R (rhIGF-1R); assay: labeled antibody on rhIGF-1R-coated beads; competitor: unlabeled hR1
# [6] = biological target: T1, recombinant human IGF-1R (rhIGF-1R); assay: labeled antibody on rhIGF-1R-coated beads; competitor: unlabeled 3B7
# [7] = biological target: T1, recombinant human IGF-1R (rhIGF-1R); assay: labeled antibody on rhIGF-1R-coated beads; competitor: unlabeled MAB391
# [8] = biological target: T1, recombinant human IGF-1R (rhIGF-1R); assay: labeled antibody on rhIGF-1R-coated beads; competitor: unlabeled cR1
# [9] = biological target: T1, recombinant human IGF-1R (rhIGF-1R); assay: labeled antibody on rhIGF-1R-coated beads; competitor: unlabeled 1-2
# [10] = biological target: T1, recombinant human IGF-1R (rhIGF-1R); assay: labeled antibody on rhIGF-1R-coated beads; competitor: unlabeled 24-60
# [11] = biological target: T1, recombinant human IGF-1R (rhIGF-1R); assay: labeled antibody on rhIGF-1R-coated beads; competitor: unlabeled αIR-3
# [12] = biological target: T1, recombinant human IGF-1R (rhIGF-1R); assay: labeled antibody on rhIGF-1R-coated beads; competitor: unlabeled 17-69
# [13] = biological target: T1, recombinant human IGF-1R (rhIGF-1R); assay: labeled antibody on rhIGF-1R-coated beads; competitor: unlabeled 24-57
# [14] = biological target: IGF-1R on human cancer cell lines (human) (UniProt P08069); assay: 125I-IGF-1 binding to MCF-7L cells with antibody at 1000 ng/mL
# [15] = biological target: IGF-1R on human cancer cell lines (human) (UniProt P08069); assay: 125I-IGF-1 binding to MCF-7L cells with antibody at 100 ng/mL
# [16] = biological target: IGF-1R and EGP-1 together on MCF-7, DU-145 or ME-180 cells; assay: flow cytometry (FACScan) on ME-180 cells; control antibody
# [17] = biological target: IGF-1R and EGP-1 together on MCF-7, DU-145 or ME-180 cells; assay: flow cytometry (FACScan) on DU-145 cells; control antibody
# [18] = biological target: IGF-1R and EGP-1 together on MCF-7, DU-145 or ME-180 cells; assay: flow cytometry (FACScan) on MCF-7 cells; control antibody
# [19] = biological target: IGF-1R and EGP-1 together on MCF-7, DU-145 or ME-180 cells; assay: flow cytometry (FACScan) on MCF-7 cells; structural control construct
# EGP-1 [20] = biological target: EGP-1 (UniProt P09758); assay: flow cytometry (FACScan) on ME-180 cells
# EGP-1 [21] = biological target: EGP-1 (UniProt P09758); assay: flow cytometry (FACScan) on MCF-7 cells
# EGP-1 [22] = biological target: EGP-1 (UniProt P09758); assay: flow cytometry (FACScan) on DU-145 cells
# [23] = biological target: IGF-1R on human cancer cell lines (human) (UniProt P08069); assay: flow cytometry (FACScan) on ME-180 cells
# [24] = biological target: IGF-1R on human cancer cell lines (human) (UniProt P08069); assay: flow cytometry (FACScan) on MCF-7 cells
# [25] = biological target: IGF-1R on human cancer cell lines (human) (UniProt P08069); assay: flow cytometry (FACScan) on DU-145 cells
# [26] = biological target: T2, recombinant human insulin receptor (rhIR) (human, UniProt P06213-2 28-944, limits assumed); assay: hybridoma screening, assay not described
# T2 construct: also called recombinant human IR
# [27] = biological target: T1, recombinant human IGF-1R (rhIGF-1R); assay: PE-tagged MAB391 on IGF-1R-coated beads with R1 at 100 µg/mL
# [28] = biological target: T1, recombinant human IGF-1R (rhIGF-1R); assay: ELISA on immobilized rhIGF-1R (FIG. 3)
# [29] = biological target: T2, recombinant human insulin receptor …; assay: ELISA on immobilized rhIR
# Chain of IGF-1R on human cancer cell lines (human) (P08069 31-1367): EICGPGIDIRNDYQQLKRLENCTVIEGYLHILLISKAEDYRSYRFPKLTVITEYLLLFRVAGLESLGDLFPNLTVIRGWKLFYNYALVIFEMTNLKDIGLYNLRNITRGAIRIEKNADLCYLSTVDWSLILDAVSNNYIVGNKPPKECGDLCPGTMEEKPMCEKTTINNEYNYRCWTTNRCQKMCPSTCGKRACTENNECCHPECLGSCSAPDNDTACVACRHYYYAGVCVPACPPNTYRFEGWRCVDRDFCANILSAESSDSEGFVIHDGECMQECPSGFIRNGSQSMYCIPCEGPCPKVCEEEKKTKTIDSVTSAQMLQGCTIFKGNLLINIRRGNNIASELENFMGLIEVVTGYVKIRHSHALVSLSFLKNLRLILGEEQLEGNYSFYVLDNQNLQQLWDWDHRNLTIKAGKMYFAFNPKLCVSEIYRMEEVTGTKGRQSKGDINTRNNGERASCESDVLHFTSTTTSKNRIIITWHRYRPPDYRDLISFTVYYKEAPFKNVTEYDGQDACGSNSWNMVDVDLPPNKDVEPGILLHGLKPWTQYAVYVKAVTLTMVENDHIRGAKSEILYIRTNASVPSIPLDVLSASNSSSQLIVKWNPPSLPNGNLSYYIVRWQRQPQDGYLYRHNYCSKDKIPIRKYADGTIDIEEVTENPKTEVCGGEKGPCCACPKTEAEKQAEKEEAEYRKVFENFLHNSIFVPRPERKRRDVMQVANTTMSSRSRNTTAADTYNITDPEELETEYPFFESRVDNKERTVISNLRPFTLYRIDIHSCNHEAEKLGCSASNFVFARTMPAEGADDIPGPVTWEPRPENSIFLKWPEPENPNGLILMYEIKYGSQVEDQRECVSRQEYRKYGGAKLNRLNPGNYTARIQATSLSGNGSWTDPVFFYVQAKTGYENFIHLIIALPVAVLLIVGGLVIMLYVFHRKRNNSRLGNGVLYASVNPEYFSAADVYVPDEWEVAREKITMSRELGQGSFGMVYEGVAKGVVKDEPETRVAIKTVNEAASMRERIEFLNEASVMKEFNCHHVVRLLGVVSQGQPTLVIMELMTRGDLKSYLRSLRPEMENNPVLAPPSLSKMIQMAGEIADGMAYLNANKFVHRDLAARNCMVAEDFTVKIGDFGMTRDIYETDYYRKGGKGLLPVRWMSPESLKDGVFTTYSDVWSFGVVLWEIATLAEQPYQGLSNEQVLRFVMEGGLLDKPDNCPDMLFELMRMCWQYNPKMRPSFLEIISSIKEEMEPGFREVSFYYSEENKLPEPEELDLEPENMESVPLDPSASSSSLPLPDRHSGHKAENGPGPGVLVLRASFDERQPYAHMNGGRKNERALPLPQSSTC
# Chain of EGP-1 (P09758 27-323): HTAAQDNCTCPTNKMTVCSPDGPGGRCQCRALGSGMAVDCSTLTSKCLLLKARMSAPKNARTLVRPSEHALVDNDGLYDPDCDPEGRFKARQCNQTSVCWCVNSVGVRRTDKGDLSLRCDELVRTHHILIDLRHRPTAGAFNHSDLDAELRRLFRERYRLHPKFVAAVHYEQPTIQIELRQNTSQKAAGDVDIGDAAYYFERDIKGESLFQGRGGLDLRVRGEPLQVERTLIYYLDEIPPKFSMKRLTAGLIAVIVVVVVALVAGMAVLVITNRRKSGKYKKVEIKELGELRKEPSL
# T1 sequence (P08069 31-935): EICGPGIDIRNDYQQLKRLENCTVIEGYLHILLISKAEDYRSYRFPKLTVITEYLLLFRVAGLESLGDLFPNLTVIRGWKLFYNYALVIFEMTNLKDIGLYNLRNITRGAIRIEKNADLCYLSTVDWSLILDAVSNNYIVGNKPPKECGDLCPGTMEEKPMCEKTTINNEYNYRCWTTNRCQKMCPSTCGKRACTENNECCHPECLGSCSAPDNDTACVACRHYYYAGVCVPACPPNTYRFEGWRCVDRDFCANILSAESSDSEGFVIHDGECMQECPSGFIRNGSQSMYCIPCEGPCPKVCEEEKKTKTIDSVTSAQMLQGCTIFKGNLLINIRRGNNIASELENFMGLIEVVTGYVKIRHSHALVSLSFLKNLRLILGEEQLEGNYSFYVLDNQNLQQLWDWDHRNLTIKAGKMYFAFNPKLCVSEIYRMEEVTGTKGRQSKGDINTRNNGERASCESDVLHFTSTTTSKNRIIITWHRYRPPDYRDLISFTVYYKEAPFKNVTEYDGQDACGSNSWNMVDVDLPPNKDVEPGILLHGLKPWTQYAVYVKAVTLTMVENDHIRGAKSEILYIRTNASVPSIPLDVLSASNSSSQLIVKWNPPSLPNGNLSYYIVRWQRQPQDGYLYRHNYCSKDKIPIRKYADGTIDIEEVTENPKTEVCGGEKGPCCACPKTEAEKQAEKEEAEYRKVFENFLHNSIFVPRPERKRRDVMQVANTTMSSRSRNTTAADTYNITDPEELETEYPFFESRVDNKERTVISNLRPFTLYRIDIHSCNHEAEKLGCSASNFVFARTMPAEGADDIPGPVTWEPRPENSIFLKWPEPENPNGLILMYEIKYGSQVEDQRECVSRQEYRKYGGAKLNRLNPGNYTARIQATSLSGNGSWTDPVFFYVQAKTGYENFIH
# T2 sequence (P06213 other isoform, or with tags, fused parts or gaps limits assumed): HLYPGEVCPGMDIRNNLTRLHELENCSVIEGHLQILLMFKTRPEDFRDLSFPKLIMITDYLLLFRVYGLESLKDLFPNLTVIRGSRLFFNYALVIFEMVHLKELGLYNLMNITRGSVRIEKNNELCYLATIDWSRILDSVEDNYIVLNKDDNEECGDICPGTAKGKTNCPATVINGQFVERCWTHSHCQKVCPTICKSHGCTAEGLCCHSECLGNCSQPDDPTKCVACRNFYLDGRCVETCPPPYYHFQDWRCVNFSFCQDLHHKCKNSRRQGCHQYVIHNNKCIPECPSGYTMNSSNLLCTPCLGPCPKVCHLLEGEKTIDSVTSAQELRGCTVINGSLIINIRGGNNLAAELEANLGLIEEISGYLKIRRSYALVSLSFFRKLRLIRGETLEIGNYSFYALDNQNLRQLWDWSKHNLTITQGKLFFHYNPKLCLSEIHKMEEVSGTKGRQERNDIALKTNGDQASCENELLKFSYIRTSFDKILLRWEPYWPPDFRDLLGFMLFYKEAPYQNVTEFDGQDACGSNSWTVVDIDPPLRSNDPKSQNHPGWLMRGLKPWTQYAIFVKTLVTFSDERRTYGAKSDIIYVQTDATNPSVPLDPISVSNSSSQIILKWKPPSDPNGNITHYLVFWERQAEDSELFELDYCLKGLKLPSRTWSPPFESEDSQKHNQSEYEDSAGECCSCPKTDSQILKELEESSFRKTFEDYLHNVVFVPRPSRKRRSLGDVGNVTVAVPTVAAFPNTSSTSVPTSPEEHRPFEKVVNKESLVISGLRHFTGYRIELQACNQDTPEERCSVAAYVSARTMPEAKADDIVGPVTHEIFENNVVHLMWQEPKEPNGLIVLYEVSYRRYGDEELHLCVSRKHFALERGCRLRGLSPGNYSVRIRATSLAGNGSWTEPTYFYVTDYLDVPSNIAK
Molecule,% binding of labeled antibody [1],% binding of labeled antibody [2],% binding of labeled antibody [3],% binding of labeled antibody [4],% binding of labeled antibody [5],% binding of labeled antibody [6],% binding of labeled antibody [7],% binding of labeled antibody [8],% binding of labeled antibody [9],% binding of labeled antibody [10],% binding of labeled antibody [11],% binding of labeled antibody [12],% binding of labeled antibody [13],further results
anti-IGF-1R antibody αIR-3,97%,86%,52%,115%,107%,76%,0%,97%,95%,0%,0%,89%,87%,–
mouse anti-IGF-1R monoclonal antibody MAB391,–,40%,–,–,–,–,0%,–,–,–,–,–,–,% binding of 125I-IGF-1 [14]: 38%; % binding of 125I-IGF-1 [15]: 54%
anti-IGF-1R antibody 24-60,88%,0%,18%,100%,0%,79%,0%,0%,100%,0%,21%,82%,88%,–
human IgG (control) (antibody),–,–,–,–,–,–,–,–,–,–,–,–,–,% Positive [16]: 1.37%; MFI [16]: 1.8; % Positive [17]: 1.44%; MFI [17]: 2.21; % Positive [18]: 2.34%; MFI [18]: 1.84
22-20 (DNL construct of hLL2 IgG-AD2 and hA20 Fab-DDD2) (bispecific antibody),–,–,–,–,–,–,–,–,–,–,–,–,–,% Positive [19]: 3.1%; MFI [19]: 2.11
Hex-hRS7 (hexavalent DNL construct of hRS7 IgG-AD2 and hRS7 Fab-DDD2),–,–,–,–,–,–,–,–,–,–,–,–,–,% Positive (EGP-1 [20]): 100%; MFI (EGP-1 [20]): 59.6; % Positive (EGP-1 [21]): 99.9%; MFI (EGP-1 [21]): 35.7; % Positive (EGP-1 [22]): 93.7%; MFI (EGP-1 [22]): 17
"humanized R1 antibody (hR1) (antibody, V domains shown) VH: QVQLQESGGGVVQPGRSLRLSCSASGFTFSDYYMYWVRQAPGKGLEWVAYITNYGGSTYYPDTVKGRFTISRDNAKNTLFLQMDSLRPEDTGVYFCARQSNYDYDGWFAYWGQGTPVTVSS VL: DIQLTQSPSSLSASVGDRVTITCKASQEVGTAVAWYQQKPGKAPKLLIYWASTRHTGVPSRFSGSGSGTDFTFTISSLQPEDIATYFCQQYSNYPLTFGQGTKVEIKR",100%,0%,100%,131%,0%,100%,121%,0%,100%,71%,136%,100%,100%,% Positive [23]: 10.7%; MFI [23]: 3.65; % Positive [24]: 89.2%; MFI [24]: 9.93; % Positive [25]: 30.4%; MFI [25]: 5.33
"murine anti-IGF-1R antibody R1 (antibody, V domains shown, also called ML04R1; murine R1) VH: EVKLVESGGGLVQPGGSLKLSCATSGFTFSDYYMYWVRQTPEKRLEWVAYITNYGGSTYYPDTVKGRFTISRDNAKNTLYLQMSRLRSEDTAMYFCARQSNYDYDGWFAYWGQGTTVTVSS VL: DIVMTQSHKFMSTSVGDRVSITCKASQEVGTAVAWYQQKPGQSPKLLIYWASTRHTGVPDRFTGSGSGTDFTLTISNVQSEDLADYFCQQYSNYPLTFGAGAKLELKR",–,0%,–,150%,0%,117%,–,0%,–,43%,143%,–,–,% binding of 125I-IGF-1 [14]: 58%; % binding of 125I-IGF-1 [15]: 71%; binding result [26]: no binding; % inhibition of the binding of PE-tagged MAB391 [27]: 50 to 60%
"chimeric R1 antibody (cR1) (antibody, V domains shown, Mouse-human chimeric mAb of R1, R1 VH and VK in the pdHL2 vector with human constant regions; also called clones 709.2D2 and 710.2G2) VH: EVKLVESGGGLVQPGGSLKLSCATSGFTFSDYYMYWVRQTPEKRLEWVAYITNYGGSTYYPDTVKGRFTISRDNAKNTLYLQMSRLRSEDTAMYFCARQSNYDYDGWFAYWGQGTTVTVSS VL: DIVMTQSHKFMSTSVGDRVSITCKASQEVGTAVAWYQQKPGQSPKLLIYWASTRHTGVPDRFTGSGSGTDFTLTISNVQSEDLADYFCQQYSNYPLTFGAGAKLELKR",–,–,–,–,–,–,–,–,–,–,–,–,–,Kd [28]: ~0.1 nM; binding result [29]: no binding
